Results reported in article doi:10.1101/2020.03.06.980961.
Read-outs that look alike come from different tables or passages of the source.

How the values were obtained:
Test in all cases: fluorescence anisotropy
Mtf1-Δ20 [1] = target: T1, Mtf1-Δ20 (Saccharomyces cerevisiae, UniProt P14908 1-321)
T1 sequence: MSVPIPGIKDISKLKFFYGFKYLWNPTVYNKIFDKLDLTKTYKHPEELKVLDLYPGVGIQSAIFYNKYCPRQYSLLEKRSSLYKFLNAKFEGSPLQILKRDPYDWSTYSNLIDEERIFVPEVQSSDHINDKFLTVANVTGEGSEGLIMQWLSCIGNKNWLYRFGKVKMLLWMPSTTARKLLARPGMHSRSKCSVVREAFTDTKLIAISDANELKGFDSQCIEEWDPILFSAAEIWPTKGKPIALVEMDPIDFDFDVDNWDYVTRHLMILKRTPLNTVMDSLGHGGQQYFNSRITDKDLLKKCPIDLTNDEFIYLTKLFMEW

Mtf1-Δ20 [2] = target: T1, Mtf1-Δ20; remark: listed apart in the source
TFB2M-WT [3] = target: T2, TFB2M-WT (human, UniProt Q9H5Q4 20-396)
T2 sequence: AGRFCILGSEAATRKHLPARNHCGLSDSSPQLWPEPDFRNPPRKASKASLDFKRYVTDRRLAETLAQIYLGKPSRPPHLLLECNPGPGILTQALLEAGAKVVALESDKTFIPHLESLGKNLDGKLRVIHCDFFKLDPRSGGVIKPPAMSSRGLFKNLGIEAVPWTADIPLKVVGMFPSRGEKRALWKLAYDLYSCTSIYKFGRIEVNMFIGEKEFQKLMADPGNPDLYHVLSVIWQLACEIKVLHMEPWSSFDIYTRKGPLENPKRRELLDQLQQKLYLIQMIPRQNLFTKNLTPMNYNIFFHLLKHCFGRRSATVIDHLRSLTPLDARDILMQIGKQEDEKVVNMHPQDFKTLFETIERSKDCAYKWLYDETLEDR

TFB2M-WT [4] = target: T2, TFB2M-WT; remark: listed apart in the source
TFB2M-WT [5] = target: T2, TFB2M-WT; remark: listed apart in the source
TFB2M-Δ3 = target: T3, TFB2M-Δ3 (human, UniProt Q9H5Q4 20-393)
T3 sequence: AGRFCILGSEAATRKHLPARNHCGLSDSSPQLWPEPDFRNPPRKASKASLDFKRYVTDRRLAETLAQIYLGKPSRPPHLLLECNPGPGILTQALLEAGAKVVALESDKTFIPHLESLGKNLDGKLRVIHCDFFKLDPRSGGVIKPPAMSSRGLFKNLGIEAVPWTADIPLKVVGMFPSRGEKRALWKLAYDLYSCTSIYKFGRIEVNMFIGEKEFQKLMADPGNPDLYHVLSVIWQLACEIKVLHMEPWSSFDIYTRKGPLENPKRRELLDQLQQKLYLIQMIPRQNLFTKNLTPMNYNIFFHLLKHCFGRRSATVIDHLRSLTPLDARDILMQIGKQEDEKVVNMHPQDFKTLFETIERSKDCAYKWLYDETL

TFB2M-Δ13 = target: T4, TFB2M-Δ13 (human, UniProt Q9H5Q4 20-383)
T4 sequence: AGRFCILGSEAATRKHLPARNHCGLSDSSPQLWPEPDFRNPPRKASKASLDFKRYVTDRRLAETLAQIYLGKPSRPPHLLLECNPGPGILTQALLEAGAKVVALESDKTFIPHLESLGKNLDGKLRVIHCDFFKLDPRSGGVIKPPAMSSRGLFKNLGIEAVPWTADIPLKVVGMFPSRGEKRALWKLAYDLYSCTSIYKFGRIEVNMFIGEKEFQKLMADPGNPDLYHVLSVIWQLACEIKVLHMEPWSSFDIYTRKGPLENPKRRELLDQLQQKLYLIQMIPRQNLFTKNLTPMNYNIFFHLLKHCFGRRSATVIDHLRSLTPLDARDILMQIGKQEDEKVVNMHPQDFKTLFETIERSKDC

TFB2M-WT [6] = target: T2, TFB2M-WT; remark: listed apart in the source

Work on ATATAAGTAATA (ssDNA) [15S NT] yielded a Kd (Mtf1-Δ20 [1]) of 51 ± 2.8 nM, a Kd (Mtf1-Δ20 [2]) of roughly 870 nM and a Kd (TFB2M-WT [3]) of 130 nM.

TTTTTTTTTTTT (ssDNA) [dT12]: binds (TFB2M-WT [4]).

In the case of TACCGCCAAAAG (ssDNA) [LSP NT], the Kd (TFB2M-WT [5]) is reported as 169 ± 18 nM, the Kd (TFB2M-Δ3) is reported as 92 ± 3.3 nM and the Kd (TFB2M-Δ13) is reported as 46 ± 5.2 nM.

B1: LSP duplex (dsDNA)
DNA 1: TACCGCCAAAAG
DNA 2: CTTTTGGCGGTA
B1 was tested, and the binding signal (TFB2M-WT [6]) was ~3 fold higher affinity than LSP NT.
